Earlier results, collected in article PMC2686754.

Assays:
BMP4 (Homo sapiens) = BMP4 (Homo sapiens) (UniProt P12644)
TGF-β1 (Homo sapiens) = TGF-β1 (Homo sapiens) (UniProt P01137)
Sequence of UniProt P01137 (P01137 279-390): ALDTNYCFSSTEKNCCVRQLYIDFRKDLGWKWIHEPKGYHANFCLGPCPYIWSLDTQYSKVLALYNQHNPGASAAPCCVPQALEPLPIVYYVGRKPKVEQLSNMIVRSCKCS

Sequence of UniProt P12644 (P12644 293-408): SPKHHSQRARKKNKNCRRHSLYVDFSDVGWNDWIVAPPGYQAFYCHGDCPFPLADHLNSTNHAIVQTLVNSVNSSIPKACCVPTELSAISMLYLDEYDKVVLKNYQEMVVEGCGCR

Kd (BMP4 (Homo sapiens)): 5 nM | Kd (TGF-β1 (Homo sapiens)): 30 nM
Substance: CCN2 (from UniProt P29279)
